# Test results as given in paper PMC4224607 (Chemical communications (Cambridge, England), 2014).
# Non-standard residues stand in square brackets, D forms with d. No end group written: not given here.
# Target: human carbonic anhydrase II (human, UniProt P00918 1-260)
# Assay: SPR
binder,measurement,value
[dF][dP][dL][dS][dK] [fplsk],Kd,5.8 µM
